From patent publication US20230167174A1 (Novartis, published 2023)

T1: human TREM2 on CHO-hDAP12-hTREM2 cells (human, UniProt Q9NZC2 19-230)
T1 sequence: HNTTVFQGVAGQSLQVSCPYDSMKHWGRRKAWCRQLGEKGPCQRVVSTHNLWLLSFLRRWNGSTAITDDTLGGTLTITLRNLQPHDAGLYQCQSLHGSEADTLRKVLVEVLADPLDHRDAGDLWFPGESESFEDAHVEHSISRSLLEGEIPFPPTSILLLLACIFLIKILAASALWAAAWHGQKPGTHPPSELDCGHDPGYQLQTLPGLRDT

T2: hTREM2 IgSF-hTREM1 stalk-hFc (human, UniProt Q9NZC2 19-132; Q9NP99 135-205, limits assumed)
T2 construct: domain: IgSF;domain: stalk region; also called hTREM2 IgSF-T1 stalk-hFc-bio; hTREM2 IgSF-hTREM1 stalk-hFc-bio
T2 sequence (looked up): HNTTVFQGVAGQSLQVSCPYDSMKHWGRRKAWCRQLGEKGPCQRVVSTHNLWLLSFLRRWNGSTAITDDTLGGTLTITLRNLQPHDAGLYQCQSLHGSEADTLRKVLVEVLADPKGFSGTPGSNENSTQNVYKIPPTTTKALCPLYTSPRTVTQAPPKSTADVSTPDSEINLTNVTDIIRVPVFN

T3: TREM2 (isoform 3) on transfected HEK293 cells (human)
T3 construct: also called BC032362
T3 chain: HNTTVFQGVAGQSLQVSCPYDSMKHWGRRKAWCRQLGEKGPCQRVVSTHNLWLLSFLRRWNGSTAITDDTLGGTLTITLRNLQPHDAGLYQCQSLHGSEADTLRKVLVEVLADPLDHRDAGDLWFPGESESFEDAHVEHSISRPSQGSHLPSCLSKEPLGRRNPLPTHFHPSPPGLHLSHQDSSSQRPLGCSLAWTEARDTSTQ

B1: MOR044698 (antibody, V domains shown)
VH: QVQLVQSGAEVKKPGASVKVSCKASGYTFTGYHMSWVRQAPGQGLEWMGVINPVSGNTVYAQKFQGRVTMTRDTSISTAYMELSRLRSEDTAVYYCARIPSYTYAFDYWGQGTLVTVSS
VL: DIQMTQSPSSLSASVGDRVTITCRASQDISNYLAWYQQKPGKAPKLLIYRASSLQSGVPSRFSGSGSGTDFTLTISSLQPEDFATYYCFQYRHMPSQTFGQGTKVEIKR
notes: also called MOR44698; MOR44698A
B2: MOR042596 (antibody, human IgG1, kappa, L234A L235A, V domains shown)
VH: B1 VH
VL: DIQMTQSPSSLSASVGDRVTITCRASQDISNYLAWYQQKPGKAPKLLIYRASSLQSGVPSRFSGSGSGTDFTLTISSLQPEDFATYYCQQHGHSPTTFGQGTKVEIKR
notes: full IgG; also called MOR42596

What was measured:
[1] = target: T4, cyTREM2 ECD (19-174)-APP-Avi (cynomolgus); assay: SET
T4 construct: range 19-174

[2] = target: T1, human TREM2 on CHO-hDAP12-hTREM2 cells; assay: cell-based or functional assay
[3] = target: T4, cyTREM2 ECD (19-174)-APP-Avi; assay: SPR, label free kinetics
[4] = target: T2, hTREM2 IgSF-hTREM1 stalk-hFc; assay: recombinant protein binding
[5] = target: T3, TREM2 (isoform 3) on transfected HEK293 …; assay: plasma membrane protein cell array, HEK293
Procedure: Human HEK293 cells were grown on glass slides and fixed. Test antibodies were added at 2 µg/ml. Slides were subsequently incubated with an AlexaFluor647 labelled anti-human IgG Fc detection antibody, followed by fluorescence imaging.

[6] = target: T4, cyTREM2 ECD (19-174)-APP-Avi; assay: SPR (Biacore)

Row | Binder | Kd [1] [nM] | Internalization compared to parental after 6 h [2] [fold] | Kd [3] [nM] | S/BG [4] | binding result [5] | Kd [6] [nM]
1 | B1 | 0.039 | 1.5 | 0.039 | > 20 | binds | –
2 | B2 | – | – | – | – | – | 6.6
